Data set [1] has as its system hTERT-HMEC. In words: percentage of EdU-negative (G0-arrested) nuclei per well, 72 h; higher = more G0 arrest. The following applies: reference: sequence is the full UniProt precursor, the tested protein was the secreted form or ectodomain.
Data set [2] relates to MCF7. Described as above. Conditions: reference: sequence is the full UniProt precursor, the tested protein was the secreted form or ectodomain.
Where [3] appears, read: protein concentration 0.0133825 µM.
[4] abbreviates: protein concentration 0.133825 µM.
The mark [5] stands for this setting: protein concentration 0.0165714 µM.
Where [6] appears, read: protein concentration 0.165714 µM.
Where [7] appears, read: protein concentration 0.0285714 µM.
Where [8] appears, read: protein concentration 0.285714 µM.
Where [9] appears, read: protein concentration 0.0357143 µM.
Setting [10] is: protein concentration 0.357143 µM.
[11] abbreviates: protein concentration 0.0225 µM.
[12] abbreviates: protein concentration 0.0175 µM.
Where [13] appears, read: protein concentration 0.0128571 µM.
[14] abbreviates: protein concentration 0.128571 µM.
Setting [15] is: protein concentration 0.0214286 µM.
[16] abbreviates: protein concentration 0.214286 µM.
Where [17] appears, read: protein concentration 0.0257143 µM.
Where [18] appears, read: protein concentration 0.257143 µM.

± gives the standard deviation of the averaged measurements.
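Also: secreted proteins added to cultured cells, EdU pulse at the end, nuclei found by Hoechst imaging, EdU status from nuclear versus surrounding ring intensity ratio, PBS as neutral control.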

With “MGPLSAPPCTQHITWKGLLLTASLLNFWNLPTTAQVIIEAKPPKVSEGKDVLLLVHNLPQNLTGYIWYKGQMTDLYHYITSYVVHGQIIYGPAYSGRETVYSNASLLIQNVTQEDAGSYTLHIIKRGDGTGGVTGYFTVTLYSETPKPSISSSNLNPREVMEAVRLICDPETPDASYLWLLNGQNLPMTHRLQLSKTNRTLYLFGVTKYIAGPYECEIRNPVSASRSDPVTLNLLPKLPMPYITINNLNPREKKDVLAFTCEPKSRNYTYIWWLNGQSLPVSPRVKRPIENRILILPSVTRNETGPYQCEIRDRYGGIRSNPVTLNVLYGPDLPRIYPSFTYYRSGENLDLSCFADSNPPAEYSWTINGKFQLSGQKLFIPQITTNHSGLYACSVRNSATGKEISKSMIVKVSETASPQVTYAGPNTWFQEILLL”, the “percentage of EdU-negative” value in data set [1] (setting [3]) was 4.917 ± 0.044%; in data set [1] (setting [4]), 5.76 ± 1.7%; in data set [2] (setting [3]), 24.7 ± 1.5%; in data set [2] (setting [4]), 27.3 ± 1.4%.
Take “MGPLSAPPCTQRITWKGLLLTALLLNFWNLPTTAQVTIEAEPTKVSKGKDVLLLVHNLPQNLAGYIWYKGQMKDLYHYITSYVVDGQIIIYGPAYSGRETVYSNASLLIQNVTREDAGSYTLHIVKRGDGTRGETGHFTFTLYLETPKPSISSSNLYPREDMEAVSLTCDPETPDASYLWWMNGQSLPMTHSLQLSKNKRTLFLFGVTKYTAGPYECEIRNPVSASRSDPVTLNLLPKLPKPYITINNLNPRENKDVLAFTCEPKSENYTYIWWLNGQSLPVSPRVKRPIENRILILPSVTRNETGPYQCEIQDRYGGIRSYPVTLNVLYGPDLPRIYPSFTYYHSGENLYLSCFADSNPPAEYSWTINGKFQLSGQKLFIPQITTKHSGLYACSVRNSATGMESSKSMTVKVSAPSGTGHLPGLNPL”: the “percentage of EdU-negative” value in data set [1] (setting [5]) was 4.85 ± 0.26%; in data set [1] (setting [6]), 5.01 ± 0.47%; in data set [2] (setting [5]), 24.4 ± 1.2%; in data set [2] (setting [6]), 24.3 ± 0.28%.
As for “MGPLSAPPCTQRITWKGVLLTASLLNFWNPPTTAQVTIEAQPPKVSEGKDVLLLVHNLPQNLAGYIWYKGQMTYLYHYITSYVVDGQRIIYGPAYSGRERVYSNASLLIQNVTQEDAGSYTLHIIKRRDGTGGVTGHFTFTLHLETPKPSISSSNLNPREAMEAVILTCDPATPAASYQWWMNGQSLPMTHRLQLSKTNRTLFIFGVTKYIAGPYECEIRNPVSASRSDPVTLNLLPKLSKPYITINNLNPRENKDVLTFTCEPKSKNYTYIWWLNGQSLPVSPRVKRPIENRILILPNVTRNETGPYQCEIRDRYGGIRSDPVTLNVLYGPDLPSIYPSFTYYRSGENLYLSCFAESNPRAQYSWTINGKFQLSGQKLSIPQITTKHSGLYACSVRNSATGKESSKSITVKVSDWILP”, the “percentage of EdU-negative” value in data set [1] (setting [7]) was found to be 4.04 ± 0.52%; in data set [1] (setting [8]), 11.7 ± 1.3%; in data set [2] (setting [7]), 25.3 ± 1.1%; in data set [2] (setting [8]), 30.6 ± 3.2%.
As to “MGPPPGAGVSCRGGCGFSRLLAWCFLLALSPQAPGSRGAEAVWTAYLNVSWRVPHTGVNRTVWELSEEGVYGQDSPLEPVAGVLVPPDGPGALNACNPHTNFTVPTVWGSTVQVSWLALIQRGGGCTFADKIHLAYERGASGAVIFNFPGTRNEVIPMSHPGAVDIVAIMIGNLKGTKILQSIQRGIQVTMVIEVGKKHGPWVNHYSIFFVSVSFFIITAATVGYFIFYSARRLRNARAQSRKQRQLKADAKKAIGRLQLRTLKQGDKEIGPDGDSCAVCIELYKPNDLVRILTCNHIFHKTCVDPWLLEHRTCPMCKCDILKALGIEVDVEDGSVSLQVPVSNEISNSASSHEEDNRSETASSGYASVQGTDEPPLEEHVQSTNESLQLVNHEANSVAVDVIPHVDNPTFEEDETPNQETAVREIKS [Q8TEB7]”, the “percentage of EdU-negative” value in data set [1] (setting [9]) was 4.65 ± 0.73%; in data set [1] (setting [10]) it was 10.2 ± 2.7%; in data set [2] (setting [9]) it was 24.4 ± 1.5%; in data set [2] (setting [10]) it was 31.5 ± 1.1%.
Take “MGPPSASPHRECIPWQGLLLTASLLNFWNPPTTAKLTIESMPLSVAEGKEVLLLVHNLPQHLFGYSWYKGERVDGNSLIVGYVIGTQQATPGAAYSGRETIYTNASLLIQNVTQNDIGFYTLQVIKSDLVNEEATGQFHVYQENAPGLPVGAVAGIVTGVLVGVALVAALVCFLLLAKTGRTSIQRDLKEQQPQALAPGRGPSHSSAFSMSPLSTAQAPLPNPRTAASIYEELLKHDTNIYCRMDHKAEVAS”: the “percentage of EdU-negative” value in data set [1] (setting [11]) turned out to be 5.43 ± 0.36%; in data set [1] (protein concentration 0.225 µM) it was 5.03 ± 0.028%; in data set [2] (setting [11]) it was 25 ± 3.7%; in data set [2] (protein concentration 0.225 µM), 25.4 ± 1.4%.
For “MGPPSSSGFYVSRAVALLLAGLVAALLLALAVLAALYGHCERVPPSELPGLRDLEAESSPPLRQKPTPTPKPSSARELAVTTTPSNWRPPGPWDQLRLPPWLVPLHYDLELWPQLRPDELPAGSLPFTGRVNITVRCTVATSRLLLHSLFQDCERAEVRGPLSPGTGNATVGRVPVDDVWFALDTEYMVLELSEPLKPGSSYELQLSFSGLVKEDLREGLFLNVYTDQGERRALLASQLEPTFARYVFPCFDEPALKATFNITMIHHPSYVALSNMPKLGQSEKEDVNGSKWTVTTFSTTPHMPTYLVAFVICDYDHVNRTERGKEIRIWARKDAIANGSADFALNITGPIFSFLEDLFNISYSLPKTDIIALPSFDNHAMENWGLMIFDESGLLLEPKDQLTEKKTLISYVVSHEIGHQWFGNLVTMNWWNNIWLNEGFASYFEFEVINYFNPKLPRNEIFFSNILHNILREDHALVTRAVAMKVENFKTSEIQELFDIFTYSKGASMARMLSCFLNEHLFVSALKSYLKTFSYSNAEQDDLWRHFQMAIDDQSTVILPATIKNIMDSWTHQSGFPVITLNVSTGVMKQEPFYLENIKNRTLLTSNDTWIVPILWIKNGTTQPLVWLDQSSKVFPEMQVSDSDHDWVILNLNMTGYYRVNYDKLGWKKLNQQLEKDPKAIPVIHRLQLIDDAFSLSKNNYIEIETALELTKYLAEEDEIIVWHTVLVNLVTRDLVSEVNIYDIYSLLKRYLLKRLNLIWNIYSTIIRENVLALQDDYLALISLEKLFVTACWLGLEDCLQLSKELFAKWVDHPENEIPYPIKDVVLCYGIALGSDKEWDILLNTYTNTTNKEEKIQLAYAMSCSKDPWILNRYMEYAISTSPFTSNETNIIEVVASSEVGRYVAKDFLVNNWQAVSKRYGTQSLINLIYTIGRTVTTDLQIVELQQFFSNMLEEHQRIRVHANLQTIKNENLKNKKLSARIAAWLRRNT [Q6Q4G3]”, the “percentage of EdU-negative” value in data set [1] (setting [12]) is 5.44 ± 0.3%; in data set [1] (protein concentration 0.175 µM), 16.6 ± 0.49%; in data set [2] (setting [12]), 22.3 ± 0.34%; in data set [2] (protein concentration 0.175 µM), 27.4 ± 4.3%.
With “MGPRARPALLLLMLLQTAVLQGRLLRSHSLHYLFMGASEQDLGLSLFEALGYVDDQLFVFYDHESRRVEPRTPWVSSRISSQMWLQLSQSLKGWDHMFTVDFWTIMENHNHSKESHTLQVILGCEMQEDNSTEGYWKYGYDGQDHLEFCPDTLDWRAAEPRAWPTKLEWERHKIRARQNRAYLERDCPAQLQQLLELGRGVLDQQVPPLVKVTHHVTSSVTTLRCRALNYYPQNITMKWLKDKQPMDAKEFEPKDVLPNGDGTYQGWITLAVPPGEEQRYTCQVEHPGLDQPLIVIWEPSPSGTLVIGVISGIAVFVVILFIGILFIILRKRQGSRGAMGHYVLAERE”, the “percentage of EdU-negative” value was 5.75 ± 0.3% in data set [1] (setting [13]), 7.25 ± 1.1% in data set [1] (setting [14]), 25.8 ± 0.42% in data set [2] (setting [13]) and 29 ± 1.8% in data set [2] (setting [14]).
In the case of “MGPWSRSLSALLLLLQVSSWLCQEPEPCHPGFDAESYTFTVPRRHLERGRVLGRVNFEDCTGRQRTAYFSLDTRFKVGTDGVITVKRPLRFHNPQIHFLVYAWDSTYRKFSTKVTLNTVGHHHRPPPHQASVSGIQAELLTFPNSSPGLRRQKRDWVIPPISCPENEKGPFPKNLVQIKSNKDKEGKVFYSITGQGADTPPVGVFIIERETGWLKVTEPLDRERIATYTLFSHAVSSNGNAVEDPMEILITVTDQNDNKPEFTQEVFKGSVMEGALPGTSVMEVTATDADDDVNTYNAAIAYTILSQDPELPDKNMFTINRNTGVISVVTTGLDRESFPTYTLVVQAADLQGEGLSTTATAVITVTDTNDNPPIFNPTTYKGQVPENEANVVITTLKVTDADAPNTPAWEAVYTILNDDGGQFVVTTNPVNNDGILKTAKGLDFEAKQQYILHVAVTNVVPFEVSLTTSTATVTVDVLDVNEAPIFVPPEKRVEVSEDFGVGQEITSYTAQEPDTFMEQKITYRIWRDTANWLEINPDTGAISTRAELDREDFEHVKNSTYTALIIATDNGSPVATGTGTLLLILSDVNDNAPIPEPRTIFFCERNPKPQVINIIDADLPPNTSPFTAELTHGASANWTIQYNDPTQESIILKPKMALEVGDYKINLKLMDNQNKDQVTTLEVSVCDCEGAAGVCRKAQPVEAGLQIPAILGILGGILALLILILLLLLFLRRRAVVKEPLLPPEDDTRDNVYYYDEEGGGEEDQDFDLSQLHRGLDARPEVTRNDVAPTLMSVPRYLPRPANPDEIGNFIDENLKAADTDPTAPPYDSLLVFDYEGSGSEAASLSSLNSSESDKDQDYDYLNEWGNRFKKLADMYGGGEDD”, the “percentage of EdU-negative” value in data set [1] (setting [15]) was found to be 5.09 ± 0.58%; in data set [1] (setting [11]) it was 4.93 ± 0.37%; in data set [1] (setting [16]) it was 6.74 ± 0.63%; in data set [1] (protein concentration 0.225 µM) it was 23.4 ± 1.1%; in data set [2] (setting [15]) it was 23.8 ± 3.6%; in data set [2] (setting [11]), 26.2 ± 3.6%. In addition, the “percentage of EdU-negative” value is 26.8 ± 1.9% in data set [2] (setting [16]) and 28.91 ± 0.16% in data set [2] (protein concentration 0.225 µM).
As to “MGRDLRPGSRVLLLLLLLLLVYLTQPGNGNEGSVTGSCYCGKRISSDSPPSVQFMNRLRKHLRAYHRCLYYTRFQLLSWSVCGGNKDPWVQELMSCLDLKECGHAYSGIVAHQKHLLPTSPPISQASEGASSDIHTPAQMLLSTLQSTQRPTLPVGSLSSDKELTRPNETTIHTAGHSLAAGPEAGENQKQPEKNAGPTARTSATVPVLCLLAIIFILTAALSYVLCKRRRGQSPQSSPDLPVHYIPVAPDSNT [Q9H2A7]”, the “percentage of EdU-negative” value in data set [1] (setting [17]) was 4.5 ± 0.52%; in data set [1] (setting [18]), 4.18 ± 0.16%; in data set [2] (setting [17]) it was 25.9 ± 0.7%; in data set [2] (setting [18]) it was 25.9 ± 2.8%.
